In patent US20180155451A1 (published 2018):
Where two headings read alike, the source gives them in different places.

T1: FcγRIIa H (human, UniProt P12318 34-217)
T1 construct: extracellular domain; Soluble His-tagged extracellular domain expressed in FreeStyle293 cells; also called FcγRIIa type H; FcgRIIa H; not shown: His tag attached to the C terminus
T1 sequence (looked up): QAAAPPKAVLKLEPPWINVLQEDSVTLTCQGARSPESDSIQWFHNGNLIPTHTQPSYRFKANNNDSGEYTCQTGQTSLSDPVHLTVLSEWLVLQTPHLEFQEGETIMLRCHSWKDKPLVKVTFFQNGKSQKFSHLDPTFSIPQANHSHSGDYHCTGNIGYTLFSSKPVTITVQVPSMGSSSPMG

T2: FcγRIIb (human, UniProt P31994 43-217)
T2 construct: extracellular domain; Soluble His-tagged extracellular domain expressed in FreeStyle293 cells; also called FcgRIIb; 2b; not shown: His tag attached to the C terminus
T2 sequence (looked up): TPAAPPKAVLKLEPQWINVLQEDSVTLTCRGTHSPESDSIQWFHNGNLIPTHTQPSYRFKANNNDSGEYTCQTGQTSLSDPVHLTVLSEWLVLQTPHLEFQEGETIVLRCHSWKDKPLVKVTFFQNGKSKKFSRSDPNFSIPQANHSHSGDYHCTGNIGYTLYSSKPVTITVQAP

T3: FcγRIIb (human, UniProt P31994 43-217)
T3 construct: extracellular domain; also called FcgRIIb; 2b; not shown: His tag at the C terminus
T3 sequence (looked up): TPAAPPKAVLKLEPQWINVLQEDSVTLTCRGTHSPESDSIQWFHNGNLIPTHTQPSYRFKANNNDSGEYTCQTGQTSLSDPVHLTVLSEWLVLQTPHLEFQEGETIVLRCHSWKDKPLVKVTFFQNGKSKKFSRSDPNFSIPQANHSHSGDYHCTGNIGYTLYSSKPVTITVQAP


How the values were obtained:
FcγRIIa H [1] = target: T1, FcγRIIa H; test: SPR (Biacore); He/Con_2aH divided by He/Con_2b (FcγRIIb) of the same antibody
Description: (§1) The heterodimerized antibodies He Abs in which one of the H chains was introduced with an alteration were assayed for their binding activities to each activating FcγR and inhibitory FcγR according to the method described in Example 4. […] The activating FcγRs in FIGS. 26, 27, 28, and 29 are FcγRIa, FcγRIIa (R), FcγRIIa (H), and FcγRIIIa, respectively.
(§2) Analysis of interaction between objective antibody and the FcγR was carried out using Biacore T100 (GE Healthcare). HBS-EP+ (GE Healthcare) was used as the running buffer, and the measurement temperature was set to 25° C. Chips produced by immobilizing the antigen peptide by the amine coupling method to a Series S Sencor Chip CM5 (GE Healthcare), or alternatively, chips produced by allowing preliminarily biotinylated antigen peptides to interact with and immobilize onto a Series S Sensor Chip SA (certified) (GE Healthcare) were used. Antibodies of interest were captured onto an antigen peptide-immobilized chip, and allowed to interact to each FcγR diluted with running buffer. To regenerate and repeatedly use the chip, the antibodies captured on the chip were washed off by reacting 10 mM glycine-HCl, pH 1.5.

FcγRIIa H [2] = target: T1, FcγRIIa H; test: SPR (Biacore), captured antibody, FcγR analyte; relative to GpH7-A5/GpH7-B3/GpL16-k0 = 100
Description: as §1, §2

FcγRIIb [3] = target: T2, FcγRIIb; test: as above
Description: as §1, §2

FcγRIa [4] = target: T4, FcγRIa (human, UniProt P12314 16-292); test: SPR (Biacore), antibody captured, FcγR as analyte; binding as % of GpH7-A5/GpH7-B3/GpL16-k0
T4 construct: extracellular domain; also called FcgRI; 1a; not shown: His tag at the C terminus

FcγRIIb [5] = target: T3, FcγRIIb; test: as above
FcγRIa [6] = target: T4, FcγRIa; test: SPR (Biacore); He/Con_1a (FcγRIa) divided by He/Con_2b (FcγRIIb)
FcγRIa [7] = target: T4, FcγRIa; test: SPR (Biacore), antibody captured, FcγR as analyte; binding as % of GpH7-A5/GpH7-B3/GpL16-k0; remark: listed apart in the source
FcγRIIb [8] = target: T3, FcγRIIb; test: as above; remark: listed apart in the source

T4 sequence (P12314 16-292): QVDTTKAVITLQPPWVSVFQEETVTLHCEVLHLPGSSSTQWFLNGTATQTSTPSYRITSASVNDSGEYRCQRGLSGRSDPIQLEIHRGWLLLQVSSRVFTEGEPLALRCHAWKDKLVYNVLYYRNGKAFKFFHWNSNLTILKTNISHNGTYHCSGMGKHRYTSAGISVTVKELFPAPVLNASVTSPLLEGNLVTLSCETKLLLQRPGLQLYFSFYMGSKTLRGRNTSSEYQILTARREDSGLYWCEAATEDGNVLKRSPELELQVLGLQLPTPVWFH

Row | Binder | He_2aH/2b (FcγRIIa H [1]) | He/Con_2aH (FcγRIIa H [2]) | He/Con_2b (FcγRIIb [3]) | He/Con_1a (FcγRIa [4]) | He/Con_2b (FcγRIIb [5]) | Ia/IIb He_1a/2b (FcγRIa [6]) | He/Con_1a (FcγRIa [7]) | He/Con_2b (FcγRIIb [8])
1 | GpH7-A5/GpH7-B3 variant K326_15Y/GpL16-k0 (antibody, human IgG1, kappa, Heterodimerized anti-glypican-3 IgG1; mutation in the GpH7-B3 H chain only; also called He Ab) heavy 1: not shown heavy 2: not shown light: DIVMTQSPLSLPVTPGEPASISCQASESLVHSNRNTYLHWYLQKPGQSPQLLIYKVSNRFSGVPDRFSGSGSGTDFTLKISRVEAEDVGVYYCSQNTHVPPTFGQGTKVEIERTVAAPSVFIFPPSDEQLKSGTASVVCLLNNFYPREAKVQWKVDNALQSGNSQESVTEQDSKDSTYSLSSTLTLSKADYEKHKVYACEVTHQGLSSPVTKSFNRGEC | 0.62 ratio | 98.3 relative (control = 100) | 159 relative (control = 100) | – | – | – | – | –
2 | GpH7-A5/GpH7-B3 variant K326_09D/GpL16-k0 (antibody, human IgG1, kappa, Heterodimerized anti-glypican-3 IgG1; mutation in the GpH7-B3 H chain only; also called He Ab) heavy 1: not shown heavy 2: not shown light: DIVMTQSPLSLPVTPGEPASISCQASESLVHSNRNTYLHWYLQKPGQSPQLLIYKVSNRFSGVPDRFSGSGSGTDFTLKISRVEAEDVGVYYCSQNTHVPPTFGQGTKVEIERTVAAPSVFIFPPSDEQLKSGTASVVCLLNNFYPREAKVQWKVDNALQSGNSQESVTEQDSKDSTYSLSSTLTLSKADYEKHKVYACEVTHQGLSSPVTKSFNRGEC | 0.57 ratio | 110 relative (control = 100) | 193 relative (control = 100) | – | – | – | – | –
3 | GpH7-A5/GpH7-B3 variant P331_03V/GpL16-k0 (antibody, human IgG1, kappa, heterodimerized IgG1; alteration in the GpH7-B3 H chain only; also called He Ab) heavy 1: not shown heavy 2: not shown light: DIVMTQSPLSLPVTPGEPASISCQASESLVHSNRNTYLHWYLQKPGQSPQLLIYKVSNRFSGVPDRFSGSGSGTDFTLKISRVEAEDVGVYYCSQNTHVPPTFGQGTKVEIERTVAAPSVFIFPPSDEQLKSGTASVVCLLNNFYPREAKVQWKVDNALQSGNSQESVTEQDSKDSTYSLSSTLTLSKADYEKHKVYACEVTHQGLSSPVTKSFNRGEC | – | – | – | 92 % of control | 119 % of control | 0.78 ratio | 92 % of control | 119 % of control
4 | GpH7-A5/GpH7-B3 variant K334_20W/GpL16-k0 (antibody, human IgG1, kappa, Heterodimerized anti-glypican-3 IgG1; mutation in the GpH7-B3 H chain only; also called He Ab) heavy 1: not shown heavy 2: not shown light: DIVMTQSPLSLPVTPGEPASISCQASESLVHSNRNTYLHWYLQKPGQSPQLLIYKVSNRFSGVPDRFSGSGSGTDFTLKISRVEAEDVGVYYCSQNTHVPPTFGQGTKVEIERTVAAPSVFIFPPSDEQLKSGTASVVCLLNNFYPREAKVQWKVDNALQSGNSQESVTEQDSKDSTYSLSSTLTLSKADYEKHKVYACEVTHQGLSSPVTKSFNRGEC | – | 97.6 relative (control = 100) | 104 relative (control = 100) | – | – | – | – | –
5 | GpH7-A5/GpH7-B3 variant K326_10E/GpL16-k0 (antibody, human IgG1, kappa, Heterodimerized anti-glypican-3 IgG1; mutation in the GpH7-B3 H chain only; also called He Ab) heavy 1: not shown heavy 2: not shown light: DIVMTQSPLSLPVTPGEPASISCQASESLVHSNRNTYLHWYLQKPGQSPQLLIYKVSNRFSGVPDRFSGSGSGTDFTLKISRVEAEDVGVYYCSQNTHVPPTFGQGTKVEIERTVAAPSVFIFPPSDEQLKSGTASVVCLLNNFYPREAKVQWKVDNALQSGNSQESVTEQDSKDSTYSLSSTLTLSKADYEKHKVYACEVTHQGLSSPVTKSFNRGEC | 0.51 ratio | 102 relative (control = 100) | 200 relative (control = 100) | – | – | – | – | –
6 | GpH7-A5/GpH7-B3 variant N325_20W/GpL16-k0 (antibody, human IgG1, kappa, heterodimerized IgG1; alteration in the GpH7-B3 H chain only; also called He Ab) heavy 1: not shown heavy 2: not shown light: DIVMTQSPLSLPVTPGEPASISCQASESLVHSNRNTYLHWYLQKPGQSPQLLIYKVSNRFSGVPDRFSGSGSGTDFTLKISRVEAEDVGVYYCSQNTHVPPTFGQGTKVEIERTVAAPSVFIFPPSDEQLKSGTASVVCLLNNFYPREAKVQWKVDNALQSGNSQESVTEQDSKDSTYSLSSTLTLSKADYEKHKVYACEVTHQGLSSPVTKSFNRGEC | – | – | – | 93.8 % of control | 169 % of control | 0.56 ratio | 93.8 % of control | 169 % of control
7 | GpH7-A5/GpH7-B3 variant K326_08L/GpL16-k0 (antibody, human IgG1, kappa, Heterodimerized anti-glypican-3 IgG1; mutation in the GpH7-B3 H chain only; also called He Ab) heavy 1: not shown heavy 2: not shown light: DIVMTQSPLSLPVTPGEPASISCQASESLVHSNRNTYLHWYLQKPGQSPQLLIYKVSNRFSGVPDRFSGSGSGTDFTLKISRVEAEDVGVYYCSQNTHVPPTFGQGTKVEIERTVAAPSVFIFPPSDEQLKSGTASVVCLLNNFYPREAKVQWKVDNALQSGNSQESVTEQDSKDSTYSLSSTLTLSKADYEKHKVYACEVTHQGLSSPVTKSFNRGEC | 0.52 ratio | 92.7 relative (control = 100) | 177 relative (control = 100) | – | – | – | – | –
